# Patent US8114638B2, “Arabinitol dehydrogenase from Neurospora crassa” (The Board of Trustees of the University of Illinois, priority 2007, dated 2012)
# Experiments:
# [1] = pH rate profile of LAD activity; assay type: biochemical; settings: universal buffer, 2 mM NAD+, 200 mM L-arabinitol
# Protocol: Activity was measured at pH values between 7.0 and 11.0 under saturating concentrations of NAD+ (2 mM) and L-arabinitol (200 mM) in a universal buffer (50 mM morpholineethanesulfonic acid (MES)/50 mM Tris/50 mM glycine). The pH range for N. crassa LAD activity was large, with >25% of the activity occurring with pH values of 7.0 to 11.0 (FIG. 2C). The pH optimum was around pH 9.5, and >60% of the activity remained in the pH span from 8.0 to 10.5.
# [2] = Temperature dependence of LAD activity; assay type: biochemical
# Protocol: The optimal temperature of activity was determined by assaying LAD activities at temperatures ranging from 12 to 65° C. […] (FIG. 2A). At higher temperatures, the enzyme inactivates rapidly, and at lowered temperatures, the rate increases with temperature according to the Arrhenius equation. Utilizing the Arrhenius equation to fit the data from 12 to 30° C., the energy of activation for L-arabinitol oxidation by N. crassa LAD was determined to be 49 kJ/mol. […] Thermal inactivation of N. crassa LAD was studied by incubating at 50° C. in 50 mM Tris (pH 8.0), with samples removed at various times and assayed for activity in saturating substrate conditions.
# [3] = F59 mutant kinetic analysis, substrate adonitol; assay type: biochemical; settings: 25° C., 50 mM Tris pH 8.0, NAD+ 2 mM
# Protocol: (§1) Initial rates were determined using a Varian Cary 100 Bio UV-visible spectrophotometer (Varian) at 25° C. in 50 mM Tris (pH 8.0). […] This is the first reported detection of NADP^+ utilization by LAD, although it is still considered a strongly NAD^+-dependent enzyme. Kinetic measurements with substrate L-arabinitol and cofactor NAD^+ were taken in a 5-by-5 matrix format, with substrate and cofactor concentrations varied from below their Km to 10-fold higher than their Km. The kinetic data were analyzed with a modified version of Cleland's program (Cleland, W. W. (1979) Statistical analysis of enzyme kinetic data, Methods Enzymol 63, 103-138.). Vmax and Km for both L-arabinitol and NAD^+ were obtained by fitting the data to a sequential ordered mechanism with NAD^+ binding first, based on the proposed mechanism for sorbitol dehydrogenase (Lindstad et al. (1992) The kinetic mechanism of sheep liver sorbitol dehydrogenase, Eur J Biochem 210, 641-647.) v=VmaxAB/(KiaKB+KAB+KBA+AB) (EQ. 1)
# (§2) Activity assays were run for three mutants of N. crassa LAD (F59A, F59S, and F59Y) to study the effect of mutation of this active site, putative substrate binding residue homologous to tyrosine in other SDHs. […]
# [4] = F59 mutant kinetic analysis, substrate L-arabinitol; assay type: biochemical; settings: 25° C., 50 mM Tris pH 8.0, NAD+ 2 mM
# Protocol: as §1, §2
# [5] = Effect of GST-tag removal on specific activity; assay type: biochemical; settings: 4° C. overnight
# Source text: N. crassa RNA purification, reverse-transcription PCR, cloning, and N. crassa LAD expression are described in this example. […] The reverse transcription-PCR product was subcloned into pGEX-4T-3 vector (Amersham Biosciences) using EcoRI and NotI restriction sites and was transformed into Escherichia coli BL21(DE3). This construct (pGEX-lad1) encoded N. crassa LAD as an N-terminal glutathione S-transferase (GST)-tagged fusion with a thrombin cleavage site. Cell lysates of isopropyl-β-D-thiogalactopyranoside (IPTG) induced cultures of these cells were prepared, analyzed by SDS-PAGE, and assayed for LAD activities. The construct produced soluble GST-tagged N. crassa LAD at ˜16% of the total soluble cellular proteins (FIG. 1), which was then purified in a single step with a GST-Bind kit (Novagen) according to manufacturer's protocol. […] Protein concentrations were determined by the Bradford method and by using an estimated extinction coefficient (San Diego Supercomputer Center Biology Workbench) of 35.3 mM-1 cm-1 at 280 nm with similar results. The purity of the protein was analyzed by an SDS-PAGE gel stained with Coomassie brilliant blue (FIG. 1). […]
# To determine the effect of removal of the GST-tag, the purified LAD was incubated with and without thrombin at 4° C. overnight. […] It was determined that removal of the GST-tag enhanced activity by about 65%. […]
# [6] = F59 mutant kinetic analysis, substrate xylitol; assay type: biochemical; settings: 25° C., 50 mM Tris pH 8.0, NAD+ 2 mM
# Protocol: as §1, §2
# [7] = Thermal inactivation and storage stability of LAD; assay type: physicochemical
# [8] = Kinetic parameters of LAD from various source organisms; assay type: biochemical; settings: for Specific activity: purified N. crassa LAD
# Protocol: Initial rates were determined using a Varian Cary 100 Bio UV-visible spectrophotometer (Varian) at 25° C. in 50 mM Tris (pH 8.0). […] Kinetic measurements with substrate L-arabinitol and cofactor NAD^+ were taken in a 5-by-5 matrix format, with substrate and cofactor concentrations varied from below their Km to 10-fold higher than their Km. The kinetic data were analyzed with a modified version of Cleland's program (Cleland, W. W. (1979) Statistical analysis of enzyme kinetic data, Methods Enzymol 63, 103-138.). Vmax and Km for both L-arabinitol and NAD^+ were obtained by fitting the data to a sequential ordered mechanism with NAD^+ binding first, based on the proposed mechanism for sorbitol dehydrogenase (Lindstad et al. (1992) The kinetic mechanism of sheep liver sorbitol dehydrogenase, Eur J Biochem 210, 641-647.) v=VmaxAB/(KiaKB+KAB+KBA+AB) (EQ. 1)
substance,measurement,setting,value
"N. crassa LAD: NAD+-dependent L-arabinitol 4-dehydrogenase from Neurospora crassa, 363 residues, SEQ ID NO: 1, recombinantly expressed in E. coli",activity at pH values of 7.0 to 11.0,[1],> 25%
same,activity remaining in the pH span from 8.0 to 10.5,[1],> 60%
same,pH optimum,[1],~9.5 pH
same,energy of activation for L-arabinitol oxidation,[2]; Arrhenius fit of data from 12 to 30° C.,11.7 kcal/mol
same,optimum temperature of activity,"[2]; assayed from 12 to 65° C., 200 mM L-arabinitol, 2 mM NAD+",45-55 °C
same,kcat (mean ± SD),[3],"1,080 ± 30 min^−1"
same,Km,[3]; read-out: Km (mean ± SD),35 ± 3 mM
same,kcat (mean ± SD),[4],"1,210 ± 30 min^−1"
same,increase of specific activity of thrombin-cleaved LAD over GST-tagged LAD,[5],about 65%
same,kcat (mean ± SD),[6],16.2 ± 0.667 s⁻¹
same,stability to repeated freezing (in words),[7],quite stable and does not markedly lose activity when frozen repeatedly
same,activity retained,"[7]; 45° C., after 4 hr",~60%
same,storage stability (in words),[7]; room temperature and 4° C.,retained activity at room temperature for longer than one month and at 4 °C for several months
same,kcat,[8]; N. crassa LAD,"1,206 min^−1"
same,Km,"[8]; N. crassa LAD, read-out: Km,L-arabinitol",16 mM
same,Km,"[8]; N. crassa LAD, read-out: Km,NAD+",0.174 mM
same,specific activity relative to H. jecorina LAD purified from S. cerevisiae heterologous expression,[8]; greater,~20 fold
same,Specific activity,[8],about 31 U/mg
same,Specific activity,[8]; listed as N. crassa,31 U/mg
